Assay results from PMC6733264 (ACS chemical biology, 2019).
Ends that are not written are not given here.

Target: kinase domain of BRAF^WT (human, UniProt P15056 457-717)
Test: other fluorescence titration

kinase domain of BRAF^WT, sequence (P15056 whole entry, looked up, the tested form may be a part): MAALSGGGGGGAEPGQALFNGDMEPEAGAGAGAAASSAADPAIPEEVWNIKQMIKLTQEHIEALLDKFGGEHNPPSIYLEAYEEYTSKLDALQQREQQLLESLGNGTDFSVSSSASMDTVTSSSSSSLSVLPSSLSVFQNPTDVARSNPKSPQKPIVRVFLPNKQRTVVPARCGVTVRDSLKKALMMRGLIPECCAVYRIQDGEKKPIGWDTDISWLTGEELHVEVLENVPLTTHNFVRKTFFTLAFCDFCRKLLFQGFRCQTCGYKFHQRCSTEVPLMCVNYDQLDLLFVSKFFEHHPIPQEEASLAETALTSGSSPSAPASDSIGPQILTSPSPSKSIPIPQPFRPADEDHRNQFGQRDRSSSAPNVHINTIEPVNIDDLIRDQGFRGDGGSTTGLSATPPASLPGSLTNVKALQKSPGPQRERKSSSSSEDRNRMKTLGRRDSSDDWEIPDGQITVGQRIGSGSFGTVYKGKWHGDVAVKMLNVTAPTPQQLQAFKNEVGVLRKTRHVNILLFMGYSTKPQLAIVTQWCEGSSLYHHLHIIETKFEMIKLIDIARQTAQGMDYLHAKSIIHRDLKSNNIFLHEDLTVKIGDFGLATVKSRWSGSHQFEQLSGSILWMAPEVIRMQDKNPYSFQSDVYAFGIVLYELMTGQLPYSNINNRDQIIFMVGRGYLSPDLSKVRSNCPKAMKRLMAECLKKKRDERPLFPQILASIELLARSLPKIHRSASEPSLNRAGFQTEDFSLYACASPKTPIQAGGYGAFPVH

TRHVNILLFM (also: Cy3 label, end not given here) [Braftide-Cy3]
Kd: 6.69 µM
